From the supplement of paper PMC10724198
± gives the standard deviation of the averaged measurements.

These sequences were tested on Saccharomyces cerevisiae (assay: protein stability index of tFT-peptide fusion (C-terminal peptide) (PSI (0-1 scale)); higher = more stable (slower turnover)). Details: genetic background: wild type; temperature: 30 C.
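Further: PSI is a weighted mean of sequencing reads over stability bins, variants kept only with over 10 reads, mCherry proximal and sfGFP distal, peptide attached via GGGS linker.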

Row | Sequence | protein stability index
1 | SPMELEHSSAVP | 0.6605 ± 0.0046
2 | HQYSRHASIRTL | 0.623 ± 0.06
3 | PAPPPPPPALLP | 0.677 ± 0.067
4 | CRATYVGTGGRG | 0.656 ± 0.016
5 | PPPLRAFPPPLL | 0.648 ± 0.06
6 | QKVNKDTRTSEF | 0.709 ± 0.014
7 | LQWSPQAELEGT | 0.712 ± 0.043
8 | QGVPNEPLWARP | 0.72 ± 0.027
9 | LGSSTGSVESLS | 0.737 ± 0.048
10 | PLASPYRLCPVP | 0.624 ± 0.044
11 | HTEYQGAGIPDE | 0.752 ± 0.037
12 | SLGSRFWGPYPF | 0.679 ± 0.029
13 | KKRKKNIKQNTK | 0.617 ± 0.043
14 | SSSRCPRLPLPS | 0.6358 ± 0.0012
15 | GCLSPSTPLWFP | 0.71454 ± 0.00037
16 | FPLPPPPPAVFL | 0.673 ± 0.086
17 | GPVCVVSGVFTV | 0.665 ± 0.072
18 | SIGYDLFTKDKI | 0.789 ± 0.13
19 | VCLGAWGEGGRG | 0.664 ± 0.071
20 | EFFSFPLTPYAL | 0.818 ± 0.0035
21 | QSNQEETRQDGT | 0.687 ± 0.0084
22 | GGAGAGHDPRRN | 0.705 ± 0.019
23 | PPPPPTALLRPP | 0.731 ± 0.18
24 | RGPGKKQIISQK | 0.741 ± 0.02
25 | VPCPPRRLAPRG | 0.582 ± 0.015
26 | IISAIAPFIRWD | 0.69 ± 0.03

Row | Sequence | protein stability index
27 | WSRLAGMGRGGA | 0.764 ± 0.013
28 | LLVREVGVERTF | 0.7636 ± 0.0024
29 | YFVAVLGRCIRG | 0.6519 ± 0.0011
30 | LPSASPPSPPPP | 0.652 ± 0.037
31 | LLLPFVSPPVYS | 0.569 ± 0.031
32 | VGMVTADGRLAT | 0.692 ± 0.043
33 | EGYTPETPCYQK | 0.688 ± 0.029
34 | FEVAPAPLDQVV | 0.653 ± 0.028
35 | PSPPVPRPPPSP | 0.647 ± 0.018
36 | TPMEKRQDANIN | 0.691 ± 0.015
37 | DVAPPFLSFFVV | 0.62 ± 0.011
38 | KKKKKKKQKSKK | 0.704 ± 0.057
39 | LTVLGSGNLTRS | 0.729 ± 0.029
40 | IIKRKKLMEKRT | 0.663 ± 0.013
41 | AILSTSHSPWNS | 0.737 ± 0.053
42 | PKSFLRRLRGWA | 0.701 ± 0.07
43 | WSIEESLGIWLR | 0.538 ± 0.021
44 | ARRPAESHGTTI | 0.716 ± 0.012
45 | PLPRSPLHPSVP | 0.74 ± 0.03
46 | KGQNLAVTRERE | 0.7 ± 0.024
47 | NLRESRSLKGVI | 0.73 ± 0.016
48 | APPTTPPPGTHP | 0.696 ± 0.069
49 | TSLIPPASPFAW | 0.643 ± 0.11
50 | VPTLCDQVFLFA | 0.627 ± 0.0086
51 | SCSVAIFLLSSP | 0.6848 ± 0.0025
52 | GVNTKEEPNEFI | 0.698 ± 0.041

Row | Sequence | protein stability index
53 | RRGAVHWKQFTR | 0.732 ± 0.072
54 | SPWLSSRFRVPR | 0.686 ± 0.021
55 | RVPPAIPSRRAC | 0.682 ± 0.06
56 | GAWGFVWLGVGC | 0.658 ± 0.031
57 | PSPRSPPPSPPS | 0.747 ± 0.12
58 | WGARSRFRWGRS | 0.7284 ± 0.0052
59 | RGAGRTHCLRAP | 0.6613 ± 0.0055
60 | SSGVCSGTSALN | 0.681 ± 0.033
61 | RGRAGTRGVVEK | 0.71 ± 0.024
62 | PPPRPTVPPGSR | 0.668 ± 0.014
63 | LLSSLLLDQPYR | 0.6455 ± 0.0036
64 | HPSPFTPPTNPY | 0.733 ± 0.06
65 | RRHGTDEHKTAD | 0.674 ± 0.016
66 | PPPSFPPFFPSF | 0.731 ± 0.014
67 | PYSPPYSLTSLS | 0.708 ± 0.075
68 | PHILMSFGSPLS | 0.729 ± 0.018
69 | VIYERDSLRGGI | 0.753 ± 0.038
70 | GCVPGVGRDVVV | 0.719 ± 0.019
71 | SSPPAPHGAHPP | 0.752 ± 0.0099
72 | NLGFTTSWSFDL | 0.766 ± 0.066
73 | KRKRQKNIRNER | 0.704 ± 0.12
74 | FRLLLFPLPLSP | 0.494 ± 0.011
75 | LYRRLLCYPKTR | 0.675 ± 0.0043
76 | VVLGQGRGVGAM | 0.669 ± 0.012
77 | PPPPLPDTLRSP | 0.6238 ± 0.0053
78 | LVCPLFCSRWWV | 0.674 ± 0.1

Row | Sequence | protein stability index
79 | PPPSFPDWRYRW | 0.755 ± 0.017
80 | LGVDFCRGVVVE | 0.654 ± 0.035
81 | PLRQRCIYDVPI | 0.7688 ± 0.0039
82 | RCVFGFGGVVVV | 0.622 ± 0.073
83 | REERSRQSLVKW | 0.675 ± 0.06
84 | GGRFGMWRGGQA | 0.7245 ± 0.0064
85 | NKKKYEIKLIME | 0.641 ± 0.06
86 | CITRIGSYGEET | 0.679 ± 0.057
87 | GKADRRKSEHVR | 0.733 ± 0.047
88 | VQIALTLNSPSL | 0.605 ± 0.058
89 | PHPCPTPPPLAP | 0.644 ± 0.043
90 | KKNQKEKATSRK | 0.769 ± 0.043
91 | WGGGRGLRGRWG | 0.694 ± 0.057
92 | ALPPIARPPPRV | 0.733 ± 0.029
93 | SSSCRPVSSAIV | 0.651 ± 0.089
94 | KISNRNKRTNRK | 0.689 ± 0.077
95 | HFCFKVFSVRAP | 0.627 ± 0.018
96 | LRVRLSVLLPLD | 0.578 ± 0.0093
97 | MYPAYNRVRFEL | 0.657 ± 0.032
98 | SGHRLGRGQGQR | 0.67 ± 0.02
99 | RCSNWFVGFCPF | 0.733 ± 0.062
100 | PRPSPPPVSPRP | 0.74 ± 0.043
101 | MRSLLDPLSNSC | 0.7804 ± 0.0065
